Measured values as given in the nanobody polyreactivity screen of Harvey et al. (2022).

Experiment: yeast display, Sf9 membrane polyspecificity reagent, FACS + sequencing; frameworks hold sequencing errors
Summary of the method: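 Nanobodies from a synthetic yeast display library (Saccharomyces cerevisiae BJ5465), induced 36–48 hours with galactose, were stained 1 hour at 4 °C with 10% biotinylated, detergent-solubilized Sf9 membrane reagent, enriched on streptavidin microbeads, then FACS-sorted. Anti-HA (expression) and streptavidin (reagent binding) fluorescence set low and high (top ~1%) gates. Polyreactivity labels come from the gate of origin. Genes were colony-PCR amplified, MiSeq 2 × 250 sequenced and filtered by CDR length.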

| Sequence | polyreactivity (PSR sort gate) |
| --- | --- |
| QVQLVESGGGLVQAGGSLRLSCAASGFTFPVYAMGWSRQAPGKERELVAAISWSGGGTYYADSVKGRFTISRDNAKNTVYVQMNSLKPEDTAVYYCAVEDLSHAYVQHYRYGYGYWGQGTQVTVSS | low polyreactivity |
| QVQLVESGGGLVQAGGSLRLSCAASGRTFVYYDMGWYRQAPGKERELVASISSGDSTNYADSVKGRFTISRDNAKNTFYLQMNSLKPEDTAVYYCAAQYSWGHYYTFDYWGLGTQVTVSS | low polyreactivity |
| QVHLVESGGALVQAGGSLPLSFSASGSIFTYYAMGWYRQQPGKERELVAAINSGGRTNYADSVKGRFTISRDNAKNTVYLQMNSLKPEDTAVYYCAKYGVLQYGYWGQGTQVTVSS | low polyreactivity |
| QVQLVESGGGLVQAGGSLRLSCAASGSTFNYNAMGWYRQAPGKEREFVAAISRSGGSTSYADSVKGRFTLSRDNAKNTVYLQMNSLKPEDTAVYYCAAYYRKTGYDYWGQGTQVTVSS | high polyreactivity |
| QVQLLESGGGLVPARGSLRLSCAASGRIFPQYVMGWYRQAPGKEREFVATISYSGGRTYYADSVKGRFTISRDNAMNTVYVQMNSLKPEDTAVYDCAAGTSAGWADDYWGQGTQVTVSS | high polyreactivity |
| QVQLVESGGGLVQAGGSLRLSCAASGSTFNIYAMGWYRQAPGKEREFVASIRWSGGSTYYADSVKGRFTISRDNAKNTVYLQMNSLKPEDTAVYYCAGRTFWGAYDYWGQGTQVTVSS | high polyreactivity |
| QVQLVESGGGLVQAGGSLRLSCAASGSIFYYAMGWYRQATGKERELVAAITTGDGTNYADSVKGRFTISRDNAKNTVYLQMNSLKPEDTAVYYCAKSTYKPYYYYFPYDYWGQGTQVTVSS | low polyreactivity |
| QVQIVESGGGLVQAGGSLRLSCAASGSIFGTNTMGWYRPAPGKEWEFVAAIRLSDSSTYYADSVKWRFTISRDNAKNTVYLQMNSLKPEDTEVYYCAVDYRAYHYYLYDYWGQGTQVTVSS | low polyreactivity |
| QVQLVESGGGLVQAGGSLRLSCAASGSIFVNNAMGWYRQAPGKERELVAAISSRGGSTYYADSVKGRFTISRDNAKNTVYLQMNSLKPEDTAVYYCAAEYDGPYYSFYPEQRYYWGQGTQVTVSS | low polyreactivity |
| QVQLQESVGGLVQAGGSLRLSCAASGTIFWGDDMGWYRQAPGKERELVASINDGSITYYADSVKGRFTISRDNAKNTVYLQMNSLKPEDTAVYYCAVRIAVVKSYLIYNYWGQGTQVTVSS | high polyreactivity |
| QVQLVESGGGLVQAGGSLRLSCAASGITFEYYAMGWYRQAPGKERELVAAITWSGGITYYADSVKGRFTISRDNAKNTVYLQMNSLKPEDTAVYYCNVYVSAGEEDEYWGQGTQVTVSS | low polyreactivity |
| QVQLVESGGGLVQAGGSLRLSCAASGFIFRYYAMGWYRQAPGKERELVAAITSRGSSTYYADSVKGRFTISRDNAKNTVYLQMNSLKPEDTAVYYCAARLRGDYVRYYYWGQGTQVTVSS | high polyreactivity |
| QVQLVESGGRLVQARGSLRLSCAPSGSIFYSNAMGSYRQAPGKEREFVAGIRSGGITNYADSVKGRFTISRDNAKNTVYLQMTSLKPEDTAVYYCAKLKDHGRYAYAFDYWRQGTQVTVSS | low polyreactivity |
| QVQLVESGGGLVQAGGSLRLSCADSRSIITNNAMGWYRQAPGKERELVAAISGSGGSTYYADSVKGRFTISRDNAKNTVYLQMNSLKPEDTAVYYCAANKSSRRMNYWGLGTQVTVSS | high polyreactivity |
| QVQLVESGGGLVQAGGSLRLSCAASGRIFGYYAMGWFRQAPGKERELVATITFGGGSTYYADSVKGRFTISRDNAKNTVYLQMNSPKPEDTAVYYCAADSGYLGIYGDEYSWGQGTQVTVSS | low polyreactivity |
| QVQLVESGGGLVQAGGILRLICAASGRIFKLNALGWYRQAPGKERELDAAITFSGGSTYYADSVKGRFRISRDNVNYTVYLQMNSMKPEYTGVYYCNAEFSNVELYYWGQGTHVTVSS | low polyreactivity |
| QVQLVESGGGLVEAAGSLRLSCAASGRILCGNTMGWYRQATGKERELFAAISWNGGGTYYADSVKGRFTISRDTAKNNVYLQMNSLTPEDTAVYYCATRYTYSTDTGYDYWGQGTQVTVSS | low polyreactivity |
| QVQLVESGGGLVQAGGSLRLSCAASGRTFYLYTMGSSRQAPGKERELVAAITGGGRTYYADSVKGRFTISRDNAKNTVYLQMNSLKPEDTAVYYCNADYAYYSYDYWGQGTQVTVSS | low polyreactivity |
| QVQLVESGGGLVQAGGSLRLSCAASGSIFKYNAMGWYRQAPGKERELVAAISNDGGRTYYADSVKGRFTISRDNAKNTVYLQMNSLKPEDTPVYDGNVVRVRYYWWEFDYWGQGTQVTVSS | high polyreactivity |
| QVQIEESGGALVQEGGSLRLSRAASGRTFYYYAMGWYRQAPGKERELVAGIDFSSGSTYYADSVKGRFTISRDNAKNTVYLQMNSLKPEDTAVYYCAAKWHVRGRGARYRYDYDYWGQGTQVTVSS | low polyreactivity |
| QVQLVESGGGLVQAGGSLRLSCAASGRTFIINTMGWYRQAPGTERQLVAAISKNGATTNYADSVKGRFTISRDNAKNTVYLQMNSLKPVDTAVYYCNARYSGYLRLDYWGQGTQVTVSS | low polyreactivity |
| QVQLVESGGGLVQAGGSLRISCAPSGSTFIPNDMGWYRQAPGKERELVAAITVSGDDTYYADSVKGRFTISRDNAKNNVYVQMNILKPEVTAVYYCAAEWGLYVGQYEYWGQGTQVTVSS | low polyreactivity |

| Sequence | polyreactivity (PSR sort gate) |
| --- | --- |
| QFHLVESGGGLVQAGGSLRLSCAASGRIFYPYAMGWYRQAPGKEREFVAAITRRTASTYYADSVKGRFTITRDNAKNTVYLQMNSLKPEDTAVYYCAADSYLKRPYYAGYYYWGQGTQVTVSS | high polyreactivity |
| QVQLVESGGGIVQAGGSLRLSCAASGSIFTVNALGWYRQAPGKERELVAAITFGGGRTYYADSVKGRFTISRDNAKNTVYLQMNSLKPEDTAVYYCAVSRKGLGSVEYWGQGTQVTVSS | low polyreactivity |
| QVQLVESGGGLVQAGGSLRLSCAASGSTYGGNAMGWYRQAPGKERELVAAISRSGSRTYYADSVKGRFTISRDNAKNTVYLQMNSLKPEDTAVYYCAARRWVWTVRYNYWGQGTQVTVSS | high polyreactivity |
| QVQLVESGGGLVQAGGSLRLSCAASGFIFVDYAMGWYRQAPGKERELVASIDRSDGSTYYADSVKGRFTISRDNAKKTVYLQMNSLKPEDTAVYYCAADDPLYSISTGDYWGQGTQVTVSL | low polyreactivity |
| QVQLVESGGGLVQAGGSLRLSCAASGSTFRWNAMGWYRQAPGKERELVAAISNGGSTNYADSVKGRFTISRDNAKNTVYLQMNSLKPEDTAVYYCATDGWYGQHYYDYDFDYYYWGQGTQVTVSS | low polyreactivity |
| QLKLEESGGGLVQAGGSLRLSCAASGFIFSYNAMGWYRQAPGKERELDAAISSIGSGTYYADSVKGRFTISRDNAKYTVYLQMNSLKPEDTAVYYCAKYLRPRIGSRYYYWGQGTQVTVSS | high polyreactivity |
| QVQLVESGGGLVQAGGSLRLSCAASGSTFRGNAMGWYRQAPGKERELVAAITRRGGSTYYADSVKGRFTISRDNAKNTVYLQMNRLKPEDTAVYYCAADWGNDWWGLFWGDYWGQGTQVTVSS | high polyreactivity |
| QVQLVESGGGLVQAGGSLRLSCAASGFTFRWYAMGWYRQAPGKERELVAAIDWSGTTTYADSVKGRFTISRDNAKNTVYLQMNSLKPEDTAVYYCAAVFRRSGYASPYDYWGQGTQVTVSS | high polyreactivity |
| QVQLVESGGGLVQAGGSLRLSCAASGRTFRNYAMGWYRQAPGKERELVAGITYSGGSTFYADSVKGRFTISRDNAKNTVYLQMNSLKPEDTAVYYCAAVYVQYYWLGRSRGLDYWGQGTQVTVSS | high polyreactivity |
| QVQLVESGGGLVQAGGSLRLSCAASGRFFGRHAMGWYRQAPGKERELVAVISKRGSSTSYADSVKGRFTISRDNAKNTVYLQMNSLKPEDTAVYYCNVFRVAYYATSTYGYDYWGQGTQVTVSS | high polyreactivity |
| KLQLVESGGGLVQAGGSLRLSCASSGSIFVWYAMGWYIQAPGKDRELVARITSGGRTNYADSVKGRFTISRDNAKNTVYLQMNSLKPEDTAVFYCAAGRVSWSPYYYWGQGTQVTVSS | high polyreactivity |
| QVQLVESGGGLVQAGGSLRLSCAASGSTFDPYAMGWYRQAPGKERELVAAITSGGGTKYADSVKGRFTISRDNAKNTVYLQMNSLKPEDTAVYYCAADYFDSSYQPTDSILYEYWGQGTQVTVSS | low polyreactivity |
| QFQLVESGGGLVQAGGSLRLSCAASGSIFEPYAMGWYRQAPGKETELVATAITYSGGSTYYADSVKGRFTISRDNAKNTVYLQMNSLKPEDTAVYYCAADDWGDGVYKLDYWGQGTQVTVSS | low polyreactivity |
| QVQLVESGGGLVQAGGSLRLSCAASGSIFLKYTMGWYRQAPGKERELVAAITSGGTTNYADSVKGRFTISRDNAKNTVYLQMNSLKPEDTAVYYCARDSYQLGLIRDPLEYDYWGQGTQVTVSS | low polyreactivity |
| QVQLVESGGGLVQAGGSLRLSCAASGSTFPRYAMGWYRQAPGKERELVAAISSGGSTYYADSVKGRFTISRDNAKNTVYLQMNSLKPEDTAVYYCNRRPGARYNYWGQGTQVTVSS | high polyreactivity |
| QVQLVESGGGLVQAGGSLRLSCAASGRIFGQYAMGWYRQAPGKERELVAAISWRGGTTYYADSVKGRFTISRDNAKNTVYLKMNSLKPVDTAVYYCNADVWVYPYDYWGQGTQVTVSS | low polyreactivity |
| QVQLVESGGGLVQAGGSLRLSCAASGGIILGYAMRWYRQARGKERELVAAISRSGVSTYYADSVKGRFTISRDNAKNTVYLQMNSLKPEDTAVYYCASDYRYASDYWGLGTQVTVSS | low polyreactivity |
| QVQLVESGGGLVQAGGSLRLSCAASGSTFTPNAMGWYRQAPGKERELVASISTTGGNTYYADSVKGRFTISRDNAKNTVYLQMNSLKPEDTADYYCNAVRSVYLYGYIYGVDYWGQGTQVTVSS | low polyreactivity |
| QVQLVESGGGLVQAGGSLRLSCAASGFTFYHYAMGWSRQAPGKESELVATISKRGGSTYYADSVKGRFTISRDNAKNTVYLQMNSLKPQDTAVFYCAAKIYWSSLKMDYWGQGTQVTVSS | high polyreactivity |
| QVQLVESGGGLVQAGGSLRLSCDASGRIIQQYAMGWYRQAHGKERELVDAISRGGSTYYADSVKGRFTISRDNAKNTVYLQMNSLKPEDTAVYYCAVRSRRGLKYDYWGQGTQVTVSS | high polyreactivity |
| QVQLVESGGGLVQAGGSLRLSCAASGFTFDWYAMGWYTQAPGKERELVAAITTSGGTTYYADSVKGRFTISRDNSKNNVYLKMISLKPEDPAVYFCAADYYYWYPVEKYDYCGQGTQVTVSS | low polyreactivity |
